In patent US20140170142A1 (AstraZeneca / MedImmune, published 2014):

Key:
mouse serum albumin [1] = target: T1, mouse serum albumin (mouse, UniProt P07724 25-608); assay: SPR (BIAcore 3000), CM5 chip, PBS pH 7.5
T1 construct: also called MSA; mouse albumin
Description: (§1) The interaction between different ABD-Fc variants and MSA (mouse serum albumin), HSA (human serum albumin) and mFcRn were monitored by surface plasmon resonance detection using BIAcore 3000 instrument. (GE Healthcare). First, ABD-Fc variants were coupled to dextran matrix of CM5 sensor chip using an Amine Coupling Kit at a surface density of 1000-2000 RU according to manufacturer's instructions. Human and mouse albumin as well mouse FcRn were flown over in a test-bind experiments at the concentrations ranging from 0.1-10 μM at a flow rate of 5 μl/min. Dilution and binding experiments were carried out in PBS pH7.5; 150 mM NaCl; 0.005% Tween for albumin binding and 50 mM NaPhosphate pH6.0; 150 mM NaCl; 0.005% Tween for mouse FcRn. Subsequently, the format of the Biacore experiments were flipped where mouse and human albumin as well as mouse FcRn were coupled to a CM5 chip using Amine Coupling Kit at surface densities ranging from 500-1500 RU. The ABD-Fc variants were flown over at three different concentrations 0.5; 1 and 10 μM. The latter format was more successful due to higher signal and self-consistency.

mouse FcRn = target: T2, mouse FcRn (mouse, UniProt Q61559 22-297; P01887 21-119, limits assumed); assay: SPR (BIAcore 3000), CM5 chip, pH 6.0, three concentrations of injectant
T2 construct: also called mFcRn
T2 sequence (looked up): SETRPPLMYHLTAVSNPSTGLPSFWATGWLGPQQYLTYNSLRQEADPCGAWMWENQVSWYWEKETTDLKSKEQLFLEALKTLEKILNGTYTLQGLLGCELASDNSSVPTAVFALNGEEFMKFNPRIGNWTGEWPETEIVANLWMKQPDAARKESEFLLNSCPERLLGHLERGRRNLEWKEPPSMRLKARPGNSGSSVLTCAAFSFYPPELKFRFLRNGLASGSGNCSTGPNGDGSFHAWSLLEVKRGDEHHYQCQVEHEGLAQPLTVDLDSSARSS
T2 sequence (b2m, looked up): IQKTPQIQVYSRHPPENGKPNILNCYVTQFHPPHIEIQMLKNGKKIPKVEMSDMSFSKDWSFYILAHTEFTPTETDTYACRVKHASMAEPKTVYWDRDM
Description: as §1

human serum albumin [2] = target: T3, human serum albumin (human, UniProt P02768 25-609); assay: SPR (BIAcore 3000), CM5 chip, PBS pH 7.5
T3 construct: also called HSA; human albumin
Description: as §1

mouse serum albumin [3] = target: T1, mouse serum albumin; assay: SPR (BIAcore 3000), CM5 chip, three concentrations of injectant
Description: as §1

human serum albumin [4] = target: T3, human serum albumin; assay: as above
Description: as §1

T3 sequence (P02768 25-609 limits assumed): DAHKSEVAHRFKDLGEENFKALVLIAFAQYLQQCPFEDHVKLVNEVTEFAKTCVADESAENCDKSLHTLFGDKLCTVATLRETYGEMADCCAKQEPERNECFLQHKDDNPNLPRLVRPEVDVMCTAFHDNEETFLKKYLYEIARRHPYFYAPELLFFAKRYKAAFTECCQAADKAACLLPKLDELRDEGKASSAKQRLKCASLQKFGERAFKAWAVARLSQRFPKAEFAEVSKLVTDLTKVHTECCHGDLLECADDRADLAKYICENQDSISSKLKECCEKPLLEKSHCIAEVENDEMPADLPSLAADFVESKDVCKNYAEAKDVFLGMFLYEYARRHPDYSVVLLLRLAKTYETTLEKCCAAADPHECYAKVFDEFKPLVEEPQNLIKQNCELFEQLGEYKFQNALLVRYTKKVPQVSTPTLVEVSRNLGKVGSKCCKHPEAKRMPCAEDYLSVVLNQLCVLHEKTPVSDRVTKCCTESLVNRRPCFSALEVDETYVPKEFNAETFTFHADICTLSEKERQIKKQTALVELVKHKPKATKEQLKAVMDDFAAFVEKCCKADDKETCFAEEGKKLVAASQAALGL

Row | Binder | binding result (mouse serum albumin [1]) | binding result (mouse FcRn) | binding result (human serum albumin [2]) | binding result (mouse serum albumin [3]) | binding result (human serum albumin [4])
1 | ABD-Fc: fusion of unmodified ABD and unmodified Fc (Fc fusion, also called wild type ABD-Fc; ABD-Fc parental construct) LAEAKVLANRELDKYGVSDYYKNLINNAKTVEGVKALIDEILAALPGAEPRGPTIKPCPPCKCPAPNLLGGPSVFIFPPKIKDVLMISLSPIVTCVVVDVSEDDPDVQISWFVNNVEVHTAQTQTHREDYNSTLRVVSALPIQHQDWMSGKEFKCKVNNKDLPAPIERTISKPKGSVRAPQVYVLPPPEEEMTKKQVTLTCMVTDFMPEDIYVEWTNNGKTELNYKNTEPVLDSDGSYFMYSKLRVEKKNWVERNSYSCSVVHEGLHNHHTTKSFSRTPGKGGGGSEQKLISEEDLGGGGSHHHHHH | binds | – | – | – | –
2 | ABD-Fc (His 310): knockout substitution in Fc region of Igg2A H310A (Fc fusion, also called ABD-(His310TM)-Fc) LAEAKVLANRELDKYGVSDYYKNLINNAKTVEGVKALIDEILAALPGAEPRGPTIKPCPPCKCPAPNLLGGPSVFIFPPKIKDVLMISLSPIVTCVVVDVSEDDPDVQISWFVNNVEVHTAQTQTHREDYNSTLRVVSALPIQAQDWMSGKEFKCKVNNKDLPAPIERTISKPKGSVRAPQVYVLPPPEEEMTKKQVTLTCMVTDFMPEDIYVEWTNNGKTELNYKNTEPVLDSDGSYFMYSKLRVEKKNWVERNSYSCSVVHEGLHNHHTTKSFSRTPGKGGGGSEQKLISEEDLGGGGSHHHHHH | binds | no binding (tested: 10 µM) | binds | – | –
3 | ABD-TM-Fc: triple knockout mutations of ABD residues S18A; T20A and Y21A (Fc fusion, T20A/Y20A; Y21A)) LAEAKVLANRELDKYGVADAYANLINNAKTVEGVKALIDEILAALPGAEPRGPTIKPCPPCKCPAPNLLGGPSVFIFPPKIKDVLMISLSPIVTCVVVDVSEDDPDVQISWFVNNVEVHTAQTQTHREDYNSTLRVVSALPIQHQDWMSGKEFKCKVNNKDLPAPIERTISKPKGSVRAPQVYVLPPPEEEMTKKQVTLTCMVTDFMPEDIYVEWTNNGKTELNYKNTEPVLDSDGSYFMYSKLRVEKKNWVERNSYSCSVVHEGLHNHHTTKSFSRTPGKGGGGSEQKLISEEDLGGGGSHHHHHH | – | – | – | no binding (tested: 10 µM) | no binding (tested: 10 µM)
